For assay [1], the target named is T1, Soluble recombinant human urokinase receptor (suPAR) (human, UniProt Q03405 23-299, biotinylated in the plate assays (sites not given)). Put plainly: uPAR receptor binding assay.
Assay [2] addresses T1, Soluble recombinant human urokinase …. Put plainly: uPAR receptor binding assay. The source holds these as a separate data set.

What is called IC50 is the concentration needed to halve the response being measured.

Like-named read-outs stand apart in the source and are kept apart here. Ends that are not written are not given here.

T1 sequence (Q03405 23-299): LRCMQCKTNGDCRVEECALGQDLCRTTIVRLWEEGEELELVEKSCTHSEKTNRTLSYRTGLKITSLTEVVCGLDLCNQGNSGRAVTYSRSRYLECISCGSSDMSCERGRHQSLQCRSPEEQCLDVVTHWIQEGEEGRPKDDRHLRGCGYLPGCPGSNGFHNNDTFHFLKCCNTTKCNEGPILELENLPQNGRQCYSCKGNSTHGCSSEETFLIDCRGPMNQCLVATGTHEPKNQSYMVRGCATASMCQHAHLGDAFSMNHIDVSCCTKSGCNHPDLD

With CLNGGTAVSNKYFSNIHWCN [uPA13-32 peptide (amino acids 13-32 of human urokinase with Cys19 converted to Ala)], the IC50 in assay [1] and in assay [2] was 250 nM throughout.

Turning to AESTYHHLSLGYMYTLN-NH2 [Peptide 25 (synthetic peptide of clone 25)], the IC50 in assay [1] and in assay [2] was more than 10000 nM each time.

As to AEPMPHSLNFSQYLWYT-NH2 [Clone 20 peptide], the IC50 in assay [1] and in assay [2] was 10 nM each time.

These data come from patent US20040265797A1 (published 2004).
